Molecular target: T1, Biotin-STn(DT*R)-20 (Homo sapiens, UniProt P15941)
T1 construct: Synthesis of MUC1 Tn20-Mer Glycopeptide; made in house; host or cells: chemical solid-phase synthesis
Assay: Affinity of antibody, Biacore T100, Sensor Chip SA
Format: binding
Settings: Biotin-STn(DT*R)-20 on Sensor Chip SA; read-out: dissociation constant KD
Protocol: Biotin-STn(DT*R)-20 was solid-phased on a Sensor Chip SA (manufactured by GE Healthcare), and a dissociation constant of 12D10 was analyzed using Biacore T100.

T1 sequence (P15941 136-155): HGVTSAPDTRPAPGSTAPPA

B1: 12D10: mouse monoclonal IgG2a anti-MUC1 antibody raised against STn(DT*R)-20-Cys-KLH; variable regions SEQ ID NOs 2 and 3 (protein)
chain 1: EVQLVESGGGLVQPGESLKLSCESNEYEFPSHDMSWVRKTPEKRLELVAAINSDGDNTYYPDTMERRFIISRDNSKKTLYLQMSSLNSADTALYYCARLTLRNWYFDVWGAGTTVTVSS
chain 2: DIVMSQSPSSLPVSVGEKVTMSCKSSQSLLYSTNQQNYLAWYQQKSGQSPKLLVYWASTRESGVPDRFTGSGSGTDFTLTISSLKAEDLAVYYCQQYYRYPPTFGAGTKLELNRA
Work on B1 yielded a Kd of 9.1 nM.

Reference: patent US8883977B2, “MUC1 antibody” (Shionogi & Co., Ltd., priority 2010, dated 2014)
